From paper PMC10837151

Target: asymmetric nucleosome with H2B-Ser6 tri-ADP-ribose on one side only (Nuc-H2B-ADPr3) (Xenopus laevis | not stated) (UniProt P02281)
Test: cryo-EM structure; modified nucleosomes at 1 µM, ALC1 at 6 µM, ADP-BeF3 at 1 mM, incubated 60 minutes on ice before vitrification

Sequence of ALC1 (Amplified in Liver Cancer 1), wild-type construct (16-879) (Q86WJ1 16-879): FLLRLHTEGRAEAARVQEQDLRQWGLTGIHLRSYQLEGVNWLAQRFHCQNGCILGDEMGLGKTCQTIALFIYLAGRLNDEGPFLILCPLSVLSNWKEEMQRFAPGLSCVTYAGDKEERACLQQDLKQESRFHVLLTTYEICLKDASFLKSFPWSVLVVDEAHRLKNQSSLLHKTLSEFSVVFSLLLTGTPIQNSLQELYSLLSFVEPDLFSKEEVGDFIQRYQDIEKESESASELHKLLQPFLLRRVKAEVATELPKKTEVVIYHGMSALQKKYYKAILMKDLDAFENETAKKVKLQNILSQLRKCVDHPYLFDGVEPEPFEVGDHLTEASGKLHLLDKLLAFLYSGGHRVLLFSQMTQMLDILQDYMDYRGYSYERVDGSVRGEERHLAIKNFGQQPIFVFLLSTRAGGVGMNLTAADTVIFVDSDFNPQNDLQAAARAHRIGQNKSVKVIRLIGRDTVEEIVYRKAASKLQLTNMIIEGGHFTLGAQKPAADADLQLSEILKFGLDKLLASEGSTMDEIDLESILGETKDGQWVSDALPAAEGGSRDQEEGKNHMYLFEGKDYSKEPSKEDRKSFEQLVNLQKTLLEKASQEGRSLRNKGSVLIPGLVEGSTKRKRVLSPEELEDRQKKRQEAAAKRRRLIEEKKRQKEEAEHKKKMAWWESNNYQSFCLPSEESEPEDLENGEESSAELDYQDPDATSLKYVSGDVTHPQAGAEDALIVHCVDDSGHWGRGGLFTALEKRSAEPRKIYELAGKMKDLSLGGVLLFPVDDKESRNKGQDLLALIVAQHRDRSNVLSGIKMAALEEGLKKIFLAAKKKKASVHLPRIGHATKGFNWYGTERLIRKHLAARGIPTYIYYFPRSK

stoichiometry N: 1
Substance: ALC1 (Amplified in Liver Cancer 1), wild-type construct (16-879) (from UniProt Q86WJ1 16-879) (enzyme)
